Assay results published in the supplement of paper PMC10126150.
± gives the standard deviation of the averaged measurements.

System: ATP
Test: switch fluorescence ratio, 500 uM ATP over buffer (Cy3 cluster intensity, sum of 5 cycles each) (fold (ratio)); higher = stronger signal-on switching upon ATP binding; sequences stand for … in TCGTCGGCAGCGTCAGATGTGTATAAGAGACAGTTTTTTTTTTTTTTTTTTTTTTTTT…TC
Settings: aptamer strand: ATP DNA aptamer (quencher-CACCTGGGGGAGTATTGCGGAGGAAGG + anchor), 100 nM annealed; ATP concentration: 500 uM
Summary of the method: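 Per cluster, summed Cy3 intensity from the target cycles was divided by that from the buffer cycles to give the fluorescence ratio, then averaged per switch-domain sequence. Clusters outside 100-1000 RFU were excluded. The Cy3-labelled switching-strand clusters, on a modified Illumina MiSeq flow-cell, were annealed to 100 nM quencher-labelled ATP aptamer and imaged in selection buffer, then after 15 min with 500 uM ATP at 22 °C, for five cycles with NaOH stripping and re-annealing between them.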
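Also: ATP exposure 15 min at 22 °C before imaging.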

| Sequence | switch fluorescence ratio |
| --- | --- |
| TAATACTCCT | 2.05 ± 0.073 |
| TAATAGAAGG | 0.977 ± 0.0098 |
| TAATAGCATA | 1.03 ± 0.033 |
| TAATAGGCAG | 1.01 ± 0.029 |
| TAATAGGGGT | 1 ± 0.018 |
| TAATAGGTTT | 1.1 ± 0.22 |
| TAATAGTAAG | 0.996 ± 0.053 |
| TAATAGTGAT | 0.983 ± 0.018 |
| TAATAGTTAC | 1.01 ± 0.041 |
| TAATCAGAGG | 0.994 ± 0.019 |
| TAATCCGCTT | 2.49 ± 0.2 |
| TAATCGATGG | 1.009 ± 0.0012 |
| TAATCGGGGG | 1.04 ± 0.043 |
| TAATCTAGAA | 1.019 ± 0.0017 |
| TAATCTGGCT | 0.993 ± 0.011 |
| TAATGACTCA | 1.034 ± 0.008 |
| TAATGATTTC | 0.992 ± 0.011 |
| TAATGCGATT | 1.04 ± 0.017 |
| TAATGCGCAA | 2.56 ± 1.6 |
| TAATGGACAA | 1.04 ± 0.017 |
| TAATGGCTT | 1.003 ± 0.0022 |
| TAATGGGCGT | 1 ± 0.012 |
| TAATGGGGTC | 0.9801 ± 0.0029 |
| TAATGGGTGA | 1.03 ± 0.016 |
| TAATGGTTGA | 1.02 ± 0.029 |
| TAATGGTTGG | 0.99283 ± 0.00085 |

| Sequence | switch fluorescence ratio |
| --- | --- |
| TAATGTGTGG | 0.9885 ± 0.0094 |
| TAATGTTCTT | 1 ± 0.033 |
| TAATTAGGAA | 1.02 ± 0.03 |
| TAATTATGAG | 0.9902 ± 0.0071 |
| TAATTCCGGG | 1.01 ± 0.013 |
| TAATTGGGCT | 0.975 ± 0.016 |
| TAATTGGTGC | 1.049 ± 0.0075 |
| TAATTTAAGG | 0.993 ± 0.039 |
| TAATTTAGTA | 0.9929 ± 0.0073 |
| TAATTTATCA | 1.01 ± 0.035 |
| TAATTTGGAG | 1 ± 0.039 |
| TAATTTGGCT | 1.01 ± 0.035 |
| TAATTTGTTA | 1 ± 0.02 |
| TAATTTTTT | 1 ± 0.038 |
| TACAAAATGG | 0.997 ± 0.012 |
| TACAAATTGA | 1.02 ± 0.021 |
| TACAACGTGG | 0.991 ± 0.012 |
| TACAAGCCTA | 1.011 ± 0.0014 |
| TACAAGGGAT | 0.983 ± 0.013 |
| TACAATGTTT | 1.02 ± 0.059 |
| TACACCGCGG | 1.02 ± 0.027 |
| TACACCTCTA | 1.07 ± 0.028 |
| TACACGAAAA | 1.13 ± 0.13 |
| TACACTGAAA | 1.08 ± 0.026 |
| TACACTGAAT | 1.01 ± 0.038 |
| TACACTGATA | 1.08 ± 0.043 |

| Sequence | switch fluorescence ratio |
| --- | --- |
| TACAGAACGC | 1.24 ± 0.24 |
| TACAGAATGG | 0.991 ± 0.014 |
| TACAGCTGGG | 1.01 ± 0.016 |
| TACAGGATGG | 0.9694 ± 0.0057 |
| TACAGGGAGT | 1.06 ± 0.047 |
| TACAGGGCTG | 1.02 ± 0.057 |
| TACAGTGAAA | 1.05 ± 0.057 |
| TACATAAGTT | 1.02 ± 0.0074 |
| TACATAATTA | 0.993 ± 0.021 |
| TACATATGGT | 1.03 ± 0.0018 |
| TACATCGTTT | 1 ± 0.025 |
| TACATGATGG | 1 ± 0.035 |
| TACATGGGCA | 1.01 ± 0.044 |
| TACATGTAGC | 0.986 ± 0.02 |
| TACATTTATA | 1.02 ± 0.019 |
| TACATTTTAC | 1.151 ± 0.0082 |
| TACCAACATC | 1.093 ± 0.0039 |
| TACCAGTCGC | 1.03 ± 0.026 |
| TACCAGTGCG | 1.19 ± 0.15 |
| TACCAGTGCT | 1.075 ± 0.0019 |
| TACCCGGTTT | 0.999 ± 0.026 |
| TACCGGATTT | 0.979 ± 0.0026 |
| TACCGTTTAT | 1.02 ± 0.036 |
| TACCTAATTA | 1.04 ± 0.046 |
| TACCTACATC | 1.26 ± 0.031 |
| TACCTCATGG | 1.01 ± 0.054 |

| Sequence | switch fluorescence ratio |
| --- | --- |
| TACCTGGTCG | 1.03 ± 0.041 |
| TACCTTGTCT | 1.04 ± 0.042 |
| TACGAATAGG | 1.017 ± 0.0043 |
| TACGCCTGTG | 1.01 ± 0.037 |
| TACGCTGGGG | 1.02 ± 0.04 |
| TACGCTTAGC | 1.1 ± 0.031 |
| TACGGAAGGA | 1.1 ± 0.021 |
| TACGGGAATT | 1.04 ± 0.023 |
| TACGGGAGCT | 1.05 ± 0.026 |
| TACGGGCCGG | 0.98 ± 0.011 |
| TACGGGGACG | 1.02 ± 0.026 |
| TACGGGGTAG | 0.996 ± 0.028 |
| TACGGGTAGC | 1.04 ± 0.02 |
| TACGGTTTAG | 1 ± 0.048 |
| TACGTAATCT | 1.27 ± 0.014 |
| TACGTAATTT | 1.17 ± 0.018 |
| TACGTATAGG | 1.098 ± 0.0028 |
| TACGTCAGTC | 1.05 ± 0.028 |
| TACGTGCTCC | 1.144 ± 0.0012 |
| TACGTGGGGC | 1.01 ± 0.0079 |
| TACGTGGGGT | 1.01 ± 0.018 |
| TACGTGGGTA | 1 ± 0.0047 |
| TACGTTATAG | 1.11 ± 0.025 |
| TACGTTGCTT | 0.9959 ± 0.0022 |
| TACGTTGGCA | 1.03 ± 0.035 |
| TACGTTTACG | 1.018 ± 0.0027 |

| Sequence | switch fluorescence ratio |
| --- | --- |
| TACGTTTCT | 1 ± 0.054 |
| TACGTTTTGT | 1.01 ± 0.011 |
| TACTAGAACT | 1.03 ± 0.035 |
| TACTAGACAG | 1.028 ± 0.0016 |
| TACTATCGTT | 0.994 ± 0.01 |
| TACTATTTTA | 1 ± 0.016 |
| TACTCAGAGG | 1.04 ± 0.021 |
| TACTCTTCAT | 1.12 ± 0.15 |
| TACTCTTTTC | 1.02 ± 0.034 |
| TACTGAAGGG | 1.02 ± 0.031 |
| TACTGAATGT | 1.02 ± 0.013 |
| TACTGATCGT | 1.04 ± 0.024 |
| TACTGCCAGC | 1.08 ± 0.054 |
| TACTGGCTGT | 1.01 ± 0.029 |
| TACTGGGCAC | 3.22 ± 3 |
| TACTGGGGCT | 1.04 ± 0.034 |
| TACTGGTCCG | 1.08 ± 0.074 |
| TACTGTTTTT | 0.9832 ± 0.0056 |
| TACTTATCCT | 1.05 ± 0.042 |
| TACTTCATTT | 1.03 ± 0.041 |
| TACTTCCTCC | 3.8 ± 0.44 |
| TACTTCGAGA | 1.081 ± 0.0099 |
| TACTTGCGGA | 1.03 ± 0.042 |
| TACTTGGGC | 1.02 ± 0.021 |
| TACTTTAGAC | 1.05 ± 0.011 |
| TACTTTCTGC | 1.02 ± 0.066 |

| Sequence | switch fluorescence ratio |
| --- | --- |
| TACTTTGCTT | 1.06 ± 0.038 |
| TACTTTTATT | 1.026 ± 0.0066 |
| TACTTTTTGG | 0.9872 ± 0.0092 |
| TAGAAAGGGT | 1.01 ± 0.041 |
| TAGAAAGGTC | 1.073 ± 0.0025 |
| TAGAAAGTTG | 0.953 ± 0.083 |
| TAGAAATTTC | 1.02 ± 0.036 |
| TAGAACAGTT | 0.9982 ± 0.0013 |
| TAGACATGTT | 1 ± 0.13 |
| TAGACGGGGG | 1 ± 0.04 |
| TAGACTTTTT | 0.997 ± 0.03 |
| TAGAGAAAAT | 0.964 ± 0.053 |
| TAGAGAGCCA | 1.03 ± 0.041 |
| TAGAGAGGAG | 1.03 ± 0.021 |
| TAGAGATGGT | 0.962 ± 0.024 |
| TAGAGGCTGC | 0.958 ± 0.042 |
| TAGAGGGGCT | 0.993 ± 0.03 |
| TAGAGGGGTG | 0.991 ± 0.0026 |
| TAGAGGGGTT | 0.985 ± 0.02 |
| TAGAGGGTGC | 0.967 ± 0.052 |
| TAGAGGTAGG | 0.979 ± 0.018 |
| TAGAGGTATG | 1.01 ± 0.028 |
| TAGAGTCCAT | 1.02 ± 0.019 |
